The results in this text go back to PMC13438699 (Nature Communications, 2026).

By Kd is commonly meant the concentration at which binding is half-saturated. A higher Kd goes with weaker binding.

This experiment addresses H1 stem (#4900), HA stem construct derived from the A/Brisbane/59/2007 (H1N1) HA (Designed HA stem #4900 from influenza A …, stabilised). The experiment is described as follows: BLI. Conditions: both partners purified.

B1: HB31 wild type (WT) Fab (Fab, V domains shown)
VH: EVQLLESGGGLVQPGGSLRLSCTVSGFTSSNYDMSWVRQAPGKGLEWVSGISGTGRDTYYADSVKGRFTISRDNSKNTLSLQMNSLRADDTAVYFCARDRPVLRYFDWQPYGLDVWGKGTTVTVSS
VL: QSALTQPPSASGSPGQSVTISCTGTSSDVGGYNYVSWYQQYPSKAPKLMIYEVSKRPSGVPDRFSGSKSGNTASLTVSGLQAEDEADYYCNSYAGSNLYVFGTGTKVTVL
notes: also called HB31 WT Fab; HB31 Fab; source: Expi293F, transiently co-transfected, purified (CaptureSelect CH1-XL)
Consider B1, for which the affinity, expressed as Kd, was 4.3 nM.

B2: HB31 wild type (WT) IgG (antibody, V domains shown)
VH: B1 VH
VL: B1 VL
notes: copies: 2 + 2
As for B2, binding was put at a Kd of 2.7 nM.
